The values that follow come from patent US20210206877A1 (Genentech, published 2021).

Changes are numbered by the printed parent chain.

B1: 6299 (antibody, V domains shown)
VH: QVQLVQSGAEVKKPGSSVKVSCKASGGTLSGYAISWVRQAPGQGLEWMGNIIPGFGTANYAQKSQGRVTITADESTSTAYMELSSLRSEDTAVYYCARSGGTRYGMLDVWGQGTMVTVSS
VL: EIVMTQSPATLSVSPGERATLSCRASQSVGSNLAWYQQKPGQAPRLLIYGASTRATGIPARFSGSGSGTEFTLTISSLQSEDFAVYYCQQSYLWPPRTFGGGTKVEIK
B2: 5894 (antibody, V domains shown)
VH: B1 VH with L29F, S64F, R103K
VL: B1 VL with S91L, L93T
B3: 5892 (antibody, V domains shown)
VH: B1 VH with L29F, G31S, G54I, N59T, S64F, R103K
VL: B1 VL with S91L, L93T
B4: 5903 (antibody, V domains shown)
VH: QLQLQESGPGLVKPSETLSLTCTVSGGSISSSSYYWGWIRQPPGKGLEWIGMIYYSGSTWYNPSLKSRVTISVDTSKNQFSLKLSSVTAADTAVYYCARVGHGISYFDLWGRGTLVTVSS
VL: EIVLTQSPATLSLSPGERATLSCRASQSVSSYLAWYQQKPGQAPRLLIYDASKRATGIPARFSGSGSGTDFTLTISSLEPEDFAVYYCQQVYTWPPRTFGGGTKVEIK
B5: 5893 (antibody, V domains shown)
VH: B1 VH with L29F, S30R, S64F, R103K
VL: B1 VL with S91L, L93T
B6: 5897 (antibody, V domains shown)
VH: B4 VH with S31W, G37S, M52S, Y55K, S58R, W60Y
VL: B4 VL with K53N, V91S, Y92L
B7: 5896 (antibody, V domains shown)
VH: B4 VH with M52S, Y55R, W60Y
VL: B4 VL with K53N, V91S, Y92L
B8: 5890 (antibody, V domains shown)
VH: B1 VH with L29F, G31S, S64F, R103K
VL: B1 VL with S91L, L93T
B9: 5888 (antibody, V domains shown)
VH: B1 VH with L29F, S30W, G31K, S64F, Q65R, R103K
VL: B1 VL with G30S, S91L, Y92I
B10: 5891 (antibody, V domains shown)
VH: B1 VH with L29F, G31S, G54I, T57P, S64F, R103K
VL: B1 VL with S91L, L93T
B11: 5905 (antibody, V domains shown)
VH: B4 VH with S31W, G37S, M52S, Y55R, S58R, W60Y
VL: B4 VL
B12: 5644 (antibody, V domains shown)
VH: B4 VH with M52S, W60Y
VL: B4 VL
B13: 5887 (antibody, V domains shown)
VH: B1 VH with L29F, S30R, S64F, R103K
VL: B1 VL with G30S, S91L, Y92I
B14: 5884 (antibody, V domains shown)
VH: B1 VH with L29F, A33G, S64F, R103K
VL: B1 VL with G30S, S91L, Y92I
B15: 5572 (antibody, V domains shown)
VH: B1 VH with L29F, G31S, N50S, G54I, S64F, R103K
VL: B1 VL with S91L, L93T
B16: 5571 (antibody, V domains shown)
VH: B1 VH with L29F, G31S, G54I, S64F, R103K, M115V
VL: B1 VL with G30S, S91L, Y92I
B17: 5883 (antibody, V domains shown)
VH: B1 VH with L29F, G31S, N50G, G54I, F55G, T57G, S64F, R103K
VL: B1 VL with G30S, S91L, Y92I
B18: 5539 (antibody, V domains shown)
VH: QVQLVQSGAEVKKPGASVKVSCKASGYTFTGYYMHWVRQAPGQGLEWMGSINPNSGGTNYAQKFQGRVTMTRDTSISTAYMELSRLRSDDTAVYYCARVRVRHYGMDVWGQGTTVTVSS
VL: DIQMTQSPSSLSASVGDRVTITCRASQSISSYLNWYQQKPGKAPKLLIYAASSLQSGVPSRFSGSGSGTDFTLTISSLQPEDFATYYCQQPLSHPRTFGGGTKVEIK
For % inhibition, FRET short substrate assay (negative = activation) in this document: test concentration or dose not given here.

In one experiment the target is T1, BACE1 endogenous to primary cortical neurons from E16.5 CD1 mice (mouse, UniProt P56818 46-501). Put plainly: cell-based or functional assay.
T1 sequence (P56818 46-501): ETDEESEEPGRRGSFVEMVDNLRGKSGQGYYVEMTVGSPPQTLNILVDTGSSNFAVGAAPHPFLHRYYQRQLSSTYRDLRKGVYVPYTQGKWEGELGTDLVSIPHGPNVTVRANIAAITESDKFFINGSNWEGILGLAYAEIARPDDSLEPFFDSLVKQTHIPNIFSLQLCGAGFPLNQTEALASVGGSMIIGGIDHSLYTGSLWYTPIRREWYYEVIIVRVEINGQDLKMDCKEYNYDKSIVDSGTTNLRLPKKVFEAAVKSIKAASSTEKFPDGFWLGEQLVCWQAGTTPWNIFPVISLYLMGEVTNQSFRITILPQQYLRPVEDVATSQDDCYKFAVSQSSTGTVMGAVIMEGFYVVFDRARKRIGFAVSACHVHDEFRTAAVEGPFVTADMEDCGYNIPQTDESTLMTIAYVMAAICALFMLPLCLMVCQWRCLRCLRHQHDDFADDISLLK
For the molecule B1, the “max % inhibition, Abeta x-40 in mouse cortical neurons” value (from here on “max % inhibition”) is 70%.

For another experiment, the target named is T2, BACE1 ECD (as used in the enzyme activity assay) (UniProt P56817 22-457, limits assumed). Put plainly: cell-based or functional assay.
T2 sequence (P56817 22-457 limits assumed): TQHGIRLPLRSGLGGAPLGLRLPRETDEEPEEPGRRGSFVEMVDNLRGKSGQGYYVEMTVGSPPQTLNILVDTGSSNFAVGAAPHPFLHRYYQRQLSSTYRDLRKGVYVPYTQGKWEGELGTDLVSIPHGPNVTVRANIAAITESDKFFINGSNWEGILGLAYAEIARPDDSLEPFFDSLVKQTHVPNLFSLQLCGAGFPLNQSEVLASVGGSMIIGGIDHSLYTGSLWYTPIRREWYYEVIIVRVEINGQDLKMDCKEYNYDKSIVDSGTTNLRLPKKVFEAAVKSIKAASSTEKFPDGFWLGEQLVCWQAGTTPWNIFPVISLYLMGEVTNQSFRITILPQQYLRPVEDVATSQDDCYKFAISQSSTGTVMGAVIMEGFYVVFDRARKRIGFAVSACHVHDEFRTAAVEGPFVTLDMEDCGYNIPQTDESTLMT
Take B2: the “EC50, FRET short substrate assay” value came out at 8.58 nM and the “EC50, HTRF long substrate assay” value worked out at 1.79 nM.
For B3 the same measures were 16.4 nM and 1.19 nM.
For B4 the same measures were 3.12 nM and 1.38 nM.
For B5 the same measures were 8.84 nM and 3.59 nM.
Regarding B6, the “EC50, FRET short substrate assay” value is 0.528 nM and the “EC50, HTRF long substrate assay” value is 1.39 nM.
For B7, in that order: 3.35 nM and 3.46 nM.
For B8 the same measures were 32.4 nM and 4.06 nM.
For B9 the same measures were 0.602 nM and 2.5 nM.
Take B10: the “EC50, FRET short substrate assay” value came out at 12.4 nM and the “EC50, HTRF long substrate assay” value stood at 3.03 nM.
For B11, in that order: 1.33 nM and 3.91 nM.

The target of a further experiment is murine BACE1 ECD. Description: cell-based or functional assay.
Chain of murine BACE1 ECD (single chain, as listed by the source limits assumed): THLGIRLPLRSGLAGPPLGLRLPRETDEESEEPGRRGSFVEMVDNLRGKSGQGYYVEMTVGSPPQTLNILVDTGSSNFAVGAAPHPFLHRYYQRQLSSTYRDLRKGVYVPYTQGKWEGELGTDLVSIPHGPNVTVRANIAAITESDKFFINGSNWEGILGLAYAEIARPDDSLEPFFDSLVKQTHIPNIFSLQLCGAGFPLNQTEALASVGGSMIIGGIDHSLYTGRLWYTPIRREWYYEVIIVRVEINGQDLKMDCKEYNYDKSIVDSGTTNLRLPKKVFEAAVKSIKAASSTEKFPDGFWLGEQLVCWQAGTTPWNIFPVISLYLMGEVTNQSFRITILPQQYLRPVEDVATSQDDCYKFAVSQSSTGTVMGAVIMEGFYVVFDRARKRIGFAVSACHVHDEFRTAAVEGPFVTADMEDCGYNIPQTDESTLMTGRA
Regarding B2, the “% inhibition, FRET short substrate assay (negative = activation)” value (from here on “% inhibition, FRET short substrate assay”) worked out at 69%.
On the same count and under the same terms, the same measure for B12: 63%.
Same read-out and setting: the same measure for B3: 64%; for B5: 69%; for B6: -3%.
Still for that read-out and setting: the figure for B7 is -3%; for B8 it is 69%; for B13 it is -230%.
On to B14, for which the “% inhibition, FRET short substrate assay” value was -243%.
The same measure, in the same setting: the figure for B15 is 77%; for B9 it is -183%.
On to B16, for which the “% inhibition, FRET short substrate assay” value is -175%.
In the case of B10, the “% inhibition, FRET short substrate assay” value is 70%.
In the case of B17, the “% inhibition, FRET short substrate assay” value was -275%.
With B11, the “% inhibition, FRET short substrate assay” value was 72%.
Same read-out and setting: the same measure for B18: 23%.

The next experiment deals with human BACE1 ECD (human, UniProt P56817). Description: cell-based or functional assay.
Chain of human BACE1 ECD (P56817 22-457): as the sequence (P56817 22-457 limits assumed) above
Regarding B2, the “% inhibition, FRET short substrate assay” value amounted to 69%.
Still for that read-out and setting: the same measure for B12: 65%; for B3: 64%; for B5: 72%.
For the molecule B6, the “% inhibition, FRET short substrate assay” value turned out to be 1%.
Take B7: the “% inhibition, FRET short substrate assay” value is -4%.
With B8, the “% inhibition, FRET short substrate assay” value came to 66%.
For B13, the “% inhibition, FRET short substrate assay” value is -102%.
The same measure, in the same setting: the figure for B14 is -102%.
Regarding B15, the “% inhibition, FRET short substrate assay” value was determined as 75%.
The same measure, in the same setting: the figure for B9 is -86%; for B16 it is -89%.
For B10, the “% inhibition, FRET short substrate assay” value came out at 71%.
On the same count and under the same terms, the figure for B17 is -129%.
Take B11: the “% inhibition, FRET short substrate assay” value was determined as 65%.
In the case of B18, the “% inhibition, FRET short substrate assay” value was found to be 42%.

The target of the next experiment is T1, BACE1 endogenous to primary cortical …. Put plainly: cell-based or functional assay. This is another data set of the same source.
B4: the “IC50, Abeta x-40 in mouse cortical neurons (row 5903*, second run)” value stood at 7.27 nM and the “max % inhibition” value amounted to 72%.
B11: the “IC50, Abeta x-40 in mouse cortical neurons (row 5905*, second run)” value stood at 0.83 nM and the “max % inhibition” value turned out to be 65%.

For a further experiment the target is unchanged. Put plainly: cell-based or functional assay. This is another data set of the same source.
In the case of B2, the “IC50, Abeta x-40 in mouse cortical neurons (row 5894*, second run)” value worked out at 5.43 nM and the “max % inhibition” value was 78%.
In the case of B12, the “max % inhibition” value is 72%.
Consider B3, for which the “max % inhibition” value was 73%.
With B5, the “max % inhibition” value was 73%.
On the same count and under the same terms, the figure for B6 is 62%.
Turning to B7, the “IC50, Abeta x-40 in mouse cortical neurons (row 5896*, second run)” value is 5.72 nM and the “max % inhibition” value was 65%.
Turning to B8, the “max % inhibition” value was 77%.
B13: the “IC50, Abeta x-40 in mouse cortical neurons (row 5887*, second run)” value worked out at 2.53 nM and the “max % inhibition” value was 75%.
As for B14, the “IC50, Abeta x-40 in mouse cortical neurons (row 5884*, second run)” value turned out to be 3.51 nM and the “max % inhibition” value came to 83%.
B15: the “max % inhibition” value was 73%.
Still for that read-out and setting: the same measure for B9: 82%; for B16: 84%.
Still for that read-out and setting: the figure for B10 is 78%; for B17 it is 82%; for B18 it is 45%.

The next experiment has as its target T2, BACE1 ECD (as used in the enzyme …). Description: cell-based or functional assay. This is another data set of the same source.
As to B12, the “EC50, FRET short substrate assay” value worked out at 8.47 nM and the “EC50, HTRF long substrate assay” value came to 8.75 nM.
Turning to B13, the “EC50, FRET short substrate assay” value came to 0.482 nM and the “EC50, HTRF long substrate assay” value turned out to be 5.5 nM.
For B14 the same measures were 0.478 nM and 7.76 nM.
Regarding B15, the “EC50, FRET short substrate assay” value was determined as 15.9 nM and the “EC50, HTRF long substrate assay” value was found to be 1.28 nM.
For B16 the same measures were 0.417 nM and 5.06 nM.
For B17 the same measures were 0.607 nM and 5.93 nM.
Regarding B18, the “EC50, HTRF long substrate assay” value is 0.694 nM.
